Blank lines part the entries; values can stand above or below the binder they belong to.
Biological target: ErbB3 receptor on cancer cells (human (endogenous in MCF-7, SK-BR-3, BT-474, Hep G2)) (UniProt P21860)
Sequence (P21860 20-1342): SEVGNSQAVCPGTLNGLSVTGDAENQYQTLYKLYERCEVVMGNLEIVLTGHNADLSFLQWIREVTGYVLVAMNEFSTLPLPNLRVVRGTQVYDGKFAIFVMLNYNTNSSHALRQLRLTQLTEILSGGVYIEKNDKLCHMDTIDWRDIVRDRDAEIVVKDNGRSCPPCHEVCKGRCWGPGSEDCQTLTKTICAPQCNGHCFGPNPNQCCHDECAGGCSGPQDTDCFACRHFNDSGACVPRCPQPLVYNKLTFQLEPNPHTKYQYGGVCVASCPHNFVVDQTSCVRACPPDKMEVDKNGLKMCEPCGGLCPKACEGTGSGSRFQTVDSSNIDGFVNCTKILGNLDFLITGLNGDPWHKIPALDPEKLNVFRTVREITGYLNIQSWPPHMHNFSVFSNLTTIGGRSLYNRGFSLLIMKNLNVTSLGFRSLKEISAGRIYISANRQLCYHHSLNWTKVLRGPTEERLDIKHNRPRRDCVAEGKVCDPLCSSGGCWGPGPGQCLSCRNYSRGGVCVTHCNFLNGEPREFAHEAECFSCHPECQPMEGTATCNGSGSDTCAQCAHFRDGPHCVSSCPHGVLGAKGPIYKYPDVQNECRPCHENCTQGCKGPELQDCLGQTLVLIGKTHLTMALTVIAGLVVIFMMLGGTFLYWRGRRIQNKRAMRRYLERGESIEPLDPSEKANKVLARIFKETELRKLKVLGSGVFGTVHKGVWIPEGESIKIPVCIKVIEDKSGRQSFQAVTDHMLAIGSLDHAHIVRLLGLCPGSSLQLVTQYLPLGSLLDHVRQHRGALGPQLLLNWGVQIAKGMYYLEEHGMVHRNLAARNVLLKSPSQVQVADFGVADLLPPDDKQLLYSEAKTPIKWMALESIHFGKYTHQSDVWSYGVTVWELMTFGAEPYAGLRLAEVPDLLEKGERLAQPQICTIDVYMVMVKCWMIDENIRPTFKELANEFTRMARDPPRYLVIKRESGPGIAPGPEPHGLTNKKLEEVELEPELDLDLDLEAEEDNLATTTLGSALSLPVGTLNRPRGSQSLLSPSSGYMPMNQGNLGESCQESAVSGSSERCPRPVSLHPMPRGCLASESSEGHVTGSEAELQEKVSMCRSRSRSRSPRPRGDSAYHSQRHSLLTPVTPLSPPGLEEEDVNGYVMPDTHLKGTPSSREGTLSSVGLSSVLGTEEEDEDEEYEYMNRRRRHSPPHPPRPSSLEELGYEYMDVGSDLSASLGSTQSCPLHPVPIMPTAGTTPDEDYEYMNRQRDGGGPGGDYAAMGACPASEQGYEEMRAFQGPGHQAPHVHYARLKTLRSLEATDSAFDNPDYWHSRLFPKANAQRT

- EC50 of inhibition of heregulin-driven proliferation of MCF-7 cells (MTS, 5 days, 50 ng/mL heregulin-1β); blocks heregulin binding to ErbB3: 25 µg/mL
- EC50 of inhibition of proliferation of SK-BR-3 cells (MTS, 5 days, 50 ng/mL heregulin-1β); blocks heregulin binding to ErbB3: 3 µg/mL
B1: BCD090-M2 (VHH)
VHH: QVQLVQSGGGLVQAGGSLRLSCAFSGRTFSMYTMGWFRQAPGKEREFVAANRGRGLSPDIADSVNGRFTISRDNAKNTLYLQMDSLKPEDTAVYYCAADLQYGSSWPQRSSAEYDYWGQGTTVTVSS

- EC50 of inhibition of heregulin-driven proliferation of MCF-7 cells (MTS, 5 days, 50 ng/mL heregulin-1β): 0.1 µg/mL
- EC50 of inhibition of proliferation of SK-BR-3 cells (MTS, 5 days, 50 ng/mL heregulin-1β): 15 µg/mL
B2: BCD090-P1 (VHH)
VHH: EVQLVQSGGGLVQPGGSLRLSCAASGRTSSKYAMGWFRQAPGKGTEFVATISWSDGSTYYADSVEGRFTISRDNAKNTVYLQMNSLKPEDTAVYYCAAAVDVLAGTFEYEYDYWGQGTLVTVSS
